The text below walks through data of doi:10.1101/2022.04.29.489987 (bioRxiv, 2022).

Test [1] concerns the target T1, TRIB2(53–343) (human, UniProt Q92519 53-343).
T1 sequence (looked up): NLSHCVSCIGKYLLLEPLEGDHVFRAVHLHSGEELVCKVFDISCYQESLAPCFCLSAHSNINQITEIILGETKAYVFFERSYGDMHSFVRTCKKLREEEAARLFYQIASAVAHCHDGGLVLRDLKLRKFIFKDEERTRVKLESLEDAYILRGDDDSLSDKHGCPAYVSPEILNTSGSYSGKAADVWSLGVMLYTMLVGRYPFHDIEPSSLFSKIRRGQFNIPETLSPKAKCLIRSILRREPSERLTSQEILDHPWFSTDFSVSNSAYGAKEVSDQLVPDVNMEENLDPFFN
The experiment in a line: ITC. (In general: Isothermal titration calorimetry measures the heat released or taken up as one component is titrated into another.)

Test [2] concerns the target TRIB2-Nb4.103 complex (human) (UniProt Q92519). The experiment in a line: ITC.
Test [3] deals with T2, TRIB2(2–343) (human, UniProt Q92519 2-343).
T2 sequence (looked up): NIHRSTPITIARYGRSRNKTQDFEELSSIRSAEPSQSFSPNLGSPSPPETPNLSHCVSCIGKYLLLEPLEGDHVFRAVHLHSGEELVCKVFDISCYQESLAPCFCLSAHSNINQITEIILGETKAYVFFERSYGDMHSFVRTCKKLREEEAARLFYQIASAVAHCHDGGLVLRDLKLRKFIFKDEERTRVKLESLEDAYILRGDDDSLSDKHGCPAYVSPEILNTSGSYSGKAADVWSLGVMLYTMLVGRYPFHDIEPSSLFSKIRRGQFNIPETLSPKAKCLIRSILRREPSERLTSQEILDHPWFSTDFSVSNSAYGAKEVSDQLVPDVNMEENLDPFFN
The experiment in a line: ELISA. In general terms: ELISA stands for enzyme-linked immunosorbent assay.

The target of test [4] is T1, TRIB2(53–343). The experiment in a line: SEC-SAXS.
The target in test [5] is T1, TRIB2(53–343). The experiment in a line: SEC-SAXS. The source holds these as a separate data set. A general note: SEC sorts molecules by how far they enter the pores of the column.

As a reminder, the Kd is a measure of binding affinity in units of concentration. For the molecule “MBP-C/EBPa (from UniProt P49715 1-358) (domain or fragment)”, the Kd in test [1] was determined as 9000 nM. Further, the fold decrease in affinity against TRIB2 alone in test [2] is 3 fold.

B1: biotinylated Nb4.101 (Nb-Avi) (VHH)
VHH: QVQLQESGGGLVQAGGSLRLSCAASGNISDYLYMGWYRQAPGKERELVAGISYGANTYYADSVKGRFTISRDNAKNTVYLQMNSLKPEDTAVYYCAVFDASRTPILTYWGQGTQVTVSS
modifications: biotin on the Avi-tag
For B1, the binding result in test [3] is reported as “binds”.

B2: Nb4.101 (VHH)
VHH: QVQLQESGGGLVQAGGSLRLSCAASGNISDYLYMGWYRQAPGKERELVAGISYGANTYYADSVKGRFTISRDNAKNTVYLQMNSLKPEDTAVYYCAVFDASRTPILTYWGQGTQVTVSS
By stoichiometry N is commonly meant a count of units in the complex or per binding partner. Turning to B2, in test [1], the equilibrium dissociation constant (Kd) was 57 nM and the “stoichiometry N” value is around 0.5. Further, in test [4], the “stoichiometry N” value is 1 TRIB2 per nanobody.

B3: Nb4.105 (VHH)
VHH: QVQLQESGGGLVQAGGSLRLSCAASGNIFDNDPMGWYRQAPGKERELVAAIAYGATTYYADSVKGRFTISRDNAKNTVYLQMNSLKPEDTAVYYCAAYGIDDSPKVYSLRYWGQGTQVTVSS
As for B3, in test [1], the affinity, expressed as Kd, was 54 nM and the “stoichiometry N” value was 1.

B4: biotinylated Nb4.105 (Nb-Avi) (VHH)
VHH: QVQLQESGGGLVQAGGSLRLSCAASGNIFDNDPMGWYRQAPGKERELVAAIAYGATTYYADSVKGRFTISRDNAKNTVYLQMNSLKPEDTAVYYCAAYGIDDSPKVYSLRYWGQGTQVTVSS
modifications: biotin on the Avi-tag
For the molecule B4, in test [3], the binding result is listed as “binds”.

B5: Nb4.103 (VHH)
VHH: QVQLQESGGGLVQAGGSLRLSCAASGNISAQAYMGWYRQAPGKERELVAGISYGATTYYADSVKGRFTISRDNAKNTVYLQMNSLKPEDTAVYYCAVISAGGGESIGYHFYWGQGTQVTVSS
Consider B5, for which binding in test [1] was put at a Kd of 27 nM. Also, the “stoichiometry N” value in test [1] is around 0.5; in test [5], 2 TRIB2 per nanobody.

B6: biotinylated Nb4.103 (Nb-Avi) (VHH)
VHH: QVQLQESGGGLVQAGGSLRLSCAASGNISAQAYMGWYRQAPGKERELVAGISYGATTYYADSVKGRFTISRDNAKNTVYLQMNSLKPEDTAVYYCAVISAGGGESIGYHFYWGQGTQVTVSS
modifications: biotin on the Avi-tag
As for B6, the binding result in test [3] was “binds”.
